Experiment [1] concerns the target class I HLA molecules (MHC-I) at the cell surface (human). The experiment is described as follows: cell-based or functional assay.
Another experiment deals with T1, Ad5Luc3 (adenovirus serotype 5 (Ad5), UniProt P11818 1-581).
T1 sequence: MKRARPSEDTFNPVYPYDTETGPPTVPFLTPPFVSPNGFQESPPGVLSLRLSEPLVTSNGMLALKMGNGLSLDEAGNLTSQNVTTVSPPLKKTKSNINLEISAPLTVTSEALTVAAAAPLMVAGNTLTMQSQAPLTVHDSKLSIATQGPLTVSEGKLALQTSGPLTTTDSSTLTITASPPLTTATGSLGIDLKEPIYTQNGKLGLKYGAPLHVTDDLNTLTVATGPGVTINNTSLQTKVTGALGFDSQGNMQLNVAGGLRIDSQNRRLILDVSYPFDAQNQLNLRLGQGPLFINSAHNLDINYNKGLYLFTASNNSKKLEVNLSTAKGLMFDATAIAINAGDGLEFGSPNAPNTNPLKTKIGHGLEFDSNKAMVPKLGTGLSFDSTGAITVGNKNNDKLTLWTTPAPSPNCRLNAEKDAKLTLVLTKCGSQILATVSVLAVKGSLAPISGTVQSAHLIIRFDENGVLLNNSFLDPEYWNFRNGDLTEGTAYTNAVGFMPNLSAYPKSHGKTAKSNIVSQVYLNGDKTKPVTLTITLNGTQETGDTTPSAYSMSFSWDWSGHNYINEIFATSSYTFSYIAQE
The experiment is described as follows: cell-based or functional assay.

Ad5Luc3 (from UniProt P11818 1-581): the luciferase activity 18 h post-infection, attachment at 0 C; Daudi HLA- cells against Daudi-HLA+ cells (orders of magnitude) in experiment [1] fell in the range of 3 to 4.

B1: synthetic peptide MH20 (peptide)
peptide: RAIVGFRVQWLRRYFVNGSR
On to B1, for which the “fold decrease in luciferase activity (RLU) in HeLa cells; Ad5Luc3 preincubated with peptide, attachment at 0 C” value with Ad5Luc3 stood at 100 fold.

The record behind these values is patent publication US20020150558A1 (CENTRE NATIONAL DE LA RECHERCHE SCIENTIFIQUE CNRS, published 2002).
